Experimental data from article PMC5285506.

Tested on: T1, Rob (Staphylococcus aureus FK300 (rsbU-repaired NCTC8325-4 derivative)), ORF:92c4d64d
T1 sequence: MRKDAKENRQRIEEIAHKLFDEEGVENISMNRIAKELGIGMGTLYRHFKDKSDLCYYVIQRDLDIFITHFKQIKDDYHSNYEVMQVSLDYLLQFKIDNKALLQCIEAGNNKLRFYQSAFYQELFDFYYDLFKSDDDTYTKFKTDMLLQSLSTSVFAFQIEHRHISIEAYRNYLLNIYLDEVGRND
Assay: EMSA
Settings: 10 mM HEPES pH 8.0, 60 mM KCl, 4 mM MgCl2, 0.1 mM EDTA, 0.1 mg/ml BSA, 0.25 mM DTT, 5% glycerol, 1 ug salmon sperm DNA and 1 ug poly(dI-dC) per 20 ul, room …

Sequence: ACAAATATTTCCGTTTAATTATAACAACAATCTATTGCAAATTAAAATACTATCAATTACCATATGGCTTACAACCTAACTAACGAAAGGTAGGTAAAGGAATTGCAA (double strand) [SHORT-1 (108 bp)]
- binding: binds

Sequence: TTGCAATTCCTTTACCTACCTTTCGTTAGTTAGGTTGTAAGCCATATGGTAATTGATAGTATTTTAATTTGCAATAGATT (double strand) [SHORT-2]
- binding: no binding
